Experimental findings from article PMC5139991, “SEC-SANS: size exclusion chromatography combined in situ with small-angle neutron scattering1” (Journal of Applied Crystallography, 2016) are described below.

This data set deals with the molecule itself. Nature of the data set: AUC; ultracentrifugation of Sir2a; no details given (to be detailed in a later publication).

B1: Plasmodium falciparum Sir2a (enzyme, UniProt Q8IE47 1-273, looked up)
chain: MGNLMISFLKKDTQSITLEELAKIIKKCKHVVALTGSGTSAESNIPSFRGSSNSIWSKYDPRIYGTIWGFWKYPEKIWEVIRDISSDYEIEINNGHVALSTLESLGYLKSVVTQNVDGLHEASGNTKVISLHGNVFEAVCCTCNKIVKLNKIMLQKTSHFMHQLPPECPCGGIFKPNIILFGEVVSSDLLKEAEEEIAKCDLLLVIGTSSTVSTATNLCHFACKKKKKIVEINISKTYITNKMSDYHVCAKFSELTKVANILKGSSEKNKKIM
notes: Sir2a of Plasmodium falciparum, codon-optimized gene PF3D7_1328800 cloned into pET-28a; printed size 34 kDa; Protonated protein; The His tag is inferred from pET-28a and the TALON purification; removal of the tag is not mentioned; source: E. coli BL21 DE3, purified (HiTrap TALON, gel filtration)
With B1, the “stoichiometry N” value turned out to be 3.

A word on the stoichiometry N: it is the number of molecules, sites or subunits per partner or assembly.
